Read-outs that look alike come from different tables or passages of the source.
Assays:
[1] = target: His-tagged SmpB protein (small protein B), wild type (E. coli) (UniProt P0A832); assay: SPR
[2] = target: His-tagged SmpB protein (small protein B), wild type (E. coli) (UniProt P0A832); assay: SPR; remark: listed apart in the source

Chain of UniProt P0A832 (P0A832 whole entry): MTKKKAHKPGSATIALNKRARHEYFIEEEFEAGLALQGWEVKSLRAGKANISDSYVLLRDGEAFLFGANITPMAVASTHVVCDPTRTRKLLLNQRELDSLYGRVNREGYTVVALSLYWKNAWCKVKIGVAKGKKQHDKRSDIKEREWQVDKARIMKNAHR

Kd [1] [nM] | Kd [2] [nM] | Substance
4.4 | 0.17 | 30S ribosomal subunit (complex)
4.8 | 0.17 | 50S ribosomal subunit (complex)
7.3 | – | 70S ribosome (complex)
